Several values for one entry are separate records, joined by “and”; a condition that tells them apart may be missing. Equal values may be shown once.
T1: cDPEP3 (Macaca fascicularis, UniProt Q4R7M2)
T1 construct: extracellular domain; also called cynomolgus DPEP3-His; cynomolgus DPEP3 ECD with histidine tag
T1 sequence (single chain, looked up): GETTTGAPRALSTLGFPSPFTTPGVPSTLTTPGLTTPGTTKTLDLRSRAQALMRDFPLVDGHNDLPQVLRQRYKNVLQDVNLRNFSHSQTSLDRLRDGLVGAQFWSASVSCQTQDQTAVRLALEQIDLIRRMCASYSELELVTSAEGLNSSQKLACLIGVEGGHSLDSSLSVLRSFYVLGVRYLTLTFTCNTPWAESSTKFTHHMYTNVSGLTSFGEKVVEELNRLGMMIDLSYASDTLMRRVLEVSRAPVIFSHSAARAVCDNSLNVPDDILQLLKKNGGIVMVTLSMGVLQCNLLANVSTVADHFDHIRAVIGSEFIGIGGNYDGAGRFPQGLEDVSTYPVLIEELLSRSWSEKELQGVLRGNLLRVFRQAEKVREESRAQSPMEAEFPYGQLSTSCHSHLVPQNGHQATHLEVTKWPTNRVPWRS

T2: mDPEP3 (limits assumed)
T2 construct: also called mouse DPEP3-His; mouse DPEP3 ECD with histidine tag
T2 single chain: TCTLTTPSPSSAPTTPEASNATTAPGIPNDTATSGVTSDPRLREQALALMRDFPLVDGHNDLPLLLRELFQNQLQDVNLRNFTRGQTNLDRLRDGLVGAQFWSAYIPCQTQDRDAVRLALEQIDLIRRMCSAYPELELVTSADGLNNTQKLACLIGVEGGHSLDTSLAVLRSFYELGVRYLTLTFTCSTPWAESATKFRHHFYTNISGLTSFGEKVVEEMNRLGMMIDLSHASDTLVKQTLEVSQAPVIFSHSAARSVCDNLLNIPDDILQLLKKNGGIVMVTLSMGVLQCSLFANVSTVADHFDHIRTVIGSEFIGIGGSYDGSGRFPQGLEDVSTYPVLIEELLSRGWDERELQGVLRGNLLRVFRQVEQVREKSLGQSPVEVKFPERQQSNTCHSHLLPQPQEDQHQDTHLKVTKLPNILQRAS

T3: rat DPEP3 ECD with histidine tag (rat, UniProt Q5U2X4 36-459, limits assumed)
T3 construct: also called rDPEP3-His; ratDPEP3-His; not shown: histidine tag
T3 sequence: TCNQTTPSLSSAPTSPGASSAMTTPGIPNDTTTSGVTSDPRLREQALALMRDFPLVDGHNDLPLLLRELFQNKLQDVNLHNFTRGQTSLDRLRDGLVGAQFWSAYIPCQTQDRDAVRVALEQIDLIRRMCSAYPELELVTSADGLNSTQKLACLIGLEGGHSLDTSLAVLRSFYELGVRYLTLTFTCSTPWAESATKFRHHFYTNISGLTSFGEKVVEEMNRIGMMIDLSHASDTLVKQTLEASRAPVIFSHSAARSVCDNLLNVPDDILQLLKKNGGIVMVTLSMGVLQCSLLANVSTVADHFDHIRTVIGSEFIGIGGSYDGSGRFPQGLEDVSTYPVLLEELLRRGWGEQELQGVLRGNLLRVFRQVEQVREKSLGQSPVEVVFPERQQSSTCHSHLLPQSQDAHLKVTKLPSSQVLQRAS

T4: hDPEP3-ECD-His (human, UniProt Q9H4B8 36-463)
T4 construct: also called hDPEP3-His; monomeric hDPEP3-His antigen; not shown: histidine tag
T4 sequence: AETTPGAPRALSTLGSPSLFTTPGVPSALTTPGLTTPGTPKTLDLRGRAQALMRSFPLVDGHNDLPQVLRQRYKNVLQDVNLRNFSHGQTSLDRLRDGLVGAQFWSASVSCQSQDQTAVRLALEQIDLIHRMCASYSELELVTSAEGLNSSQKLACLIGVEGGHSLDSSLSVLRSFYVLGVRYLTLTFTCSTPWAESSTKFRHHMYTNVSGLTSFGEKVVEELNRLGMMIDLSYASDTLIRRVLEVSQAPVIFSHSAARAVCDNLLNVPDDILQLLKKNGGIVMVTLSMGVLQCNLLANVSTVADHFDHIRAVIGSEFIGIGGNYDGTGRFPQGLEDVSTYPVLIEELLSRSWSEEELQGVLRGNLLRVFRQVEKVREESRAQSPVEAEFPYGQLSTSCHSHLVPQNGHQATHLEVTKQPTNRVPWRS

B1: SC34.5 (antibody, mouse IgG1, V domains shown)
VH: EVQLQQSGPELVKPGASMKISCKASGYSFTGYTMNWVKQSHGKNLEWIGLIYPYNDDTRYKQKFKGKATLTVDKSSSTAYMELLSLTSEDSAVYYCTRGYYGSPYFDVWGAGTTVTVSS
VL: DIVMTQFPSSLAMSVGQKVTMNCKSSQSLLNSSNQKNYLAWFQQKPGQSPKLLVYFASTRESGVPDRFLGSGSGTDFTLTISSVQAEDLADYFCQQHYSTPFTFGSGTKLEIK
notes: also called SC34.05
B2: SC34.71 (antibody, mouse IgG2a, V domains shown)
VH: QVSLKESGPGILQPSQTLSLTCSFFGFSLSTSSMGVGWIRQPSGKGLEWLANIWWDNNKYYNAALKSRLTISKDTSKNQVFLNIASVDTTDTATYYCARIESYYSNRAWFPYWGRGTLVTVSA
VL: DIVMTQSQKFMSTSVGDRVSITCKASQNVRTAVAWYQQKPGQSPKTLIYLASNRHTGVPDRFTGSGSGTDFTLTISYVQSEDLADYFCLQHLNYPWTFGGGTKLEIK
B3: SC34.6 (antibody, mouse IgG1, V domains shown)
VH: EVQLQQSGPELVKPGTSMKISCKASGYSFTGYTMNWVKQSHGKNLEWIGLIYPYNDDTRYNRKFKGKATLTVDKSSNTAYMELLSLTSVDSAVCYCARGSYGSPFFDVWGAGTTVTVSS
VL: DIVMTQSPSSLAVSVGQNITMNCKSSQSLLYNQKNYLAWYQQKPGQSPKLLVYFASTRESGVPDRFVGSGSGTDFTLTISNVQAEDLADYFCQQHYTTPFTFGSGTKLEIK
notes: also called SC34.06
B4: SC34.78 (antibody, mouse IgG1, V domains shown)
VH: DVQLQESGRGLVKPSQSLSLTCTVTGYSLTSDFAWNWIRQFPGNKLEWMGYIRYSGTTSYNPSLKSRISITRDTSKNQFFLQLNSVTTEDTATYYCGYGNYGYAMDYWGQGTSVTVSS
VL: DIMMTQSPATLSVTPGDRVSLSCRASQSIGAYLHWYQQKSHESPRLLIKYVSQSISGIPSRFSGSGSGSDFTLSINSVEPEDVGVYYCQNGHSFPLTFGAGTKLELK
B5: SC34.39 (antibody, mouse IgG2a, V domains shown)
VH: QVQLQQSGAELMKPGASVKISCKATGYTFSNYWIEWVKQRPGHGLEWIGEILPGSDSTYFNEKFKGKATFTADTSSNTAYMQLSSLTSEDSAVYYCTIRSAAYYSNPEWFAYWGQGTLVTVSA
VL: QIVLTQSPAIMSASQGERVTMTCTASSSVSSNYLHWYQQKPGSSPKLWIYSTSHLASGVPVRFSGSGSGTSYSLTISSMEAEDAATYYCHQYHRSPYTFGGGTKLEIK
B6: SC34.90 (antibody, mouse IgG2a, V domains shown)
VH: QVQLQQSGAELMKPGASVKISCKATGYTFSYYWIEWVKQRPGHGLEWIGEILPGSDTTYYNEKFKGKATFTADTSSNTAYMQLSSLTSEDSAVYYCTIRRAAYYSNPEWFAYWGQGTLVTVSA
VL: QIVLTQSPAIMSASQGERVTMTCTASSSVSSSYLHWYQQKPGSSPKLWIYSTSNLASGVPVRFSGSGSGTSYSLTISSMEAEDAATYYCHQYHRSPYTFGGGTKLEIK
B7: SC34.14 (antibody, mouse IgG1, V domains shown)
VH: EVQLQQSGPEMVKPGASVKISCKASGYIFTDYYMHWVKQSHGESLDWIGRVNPKKGGTTYNQKFEGKAILTVDKSSSTAYMDLNSLTSEDSAVYYCAMGIYYSYDASFDYWGQGTTLTVSS
VL: DIQMTQAPASLSPSVGATVTITCRTSEHIYSYLAWYQQKQGKSPRLLVYNAKTLAEGVSSRFSGSGSGTQFSLQINSLQPEDFGNYYCQHHYDTPYTFGGGTKLEIK
B8: SC34.48 (antibody, mouse IgG1, V domains shown)
VH: EVQLQQSGLEMVKPGASVKISCKASGYIFTDYYMHWVKQSHGKSLDWIGRVNPKKGGTTYNQKFEGKATLTVDKSSSTAYMDLNSLTSEDSAVYYCAMGIYFSYDASFDYWGQGTTLTVSS
VL: DIQMTQAPASLSASVGETVTITCRTSGHIYSYLAWYQQKQGKSPQLLVYNAKTLAEGVSSRFSGSGSGTQFSLKITSLQPEDFGDYYCQHHYDTPYTFGGGTKLEIK

Assays:
cDPEP3 = target: T1, cDPEP3; assay: ELISA, coated antigen
Method: (§1) The anti-DPEP3 antibodies were screened by ELISA for cross-reactivity with mouse, rat and cynomolgus DPEP3 and for cross reactivity to hDPEP2, the closest DPEP3 family member. ELISA was conducted as follows. Plates were coated with purified mouse, rat or cynomolgus DPEP3-His or hDPEP2-His at 0.3 μg/mL in 0.2 M carbonate-bicarbonate buffer, pH 9.4 overnight at 4° C. The protein solution was removed and the wells were blocked with 1% (w/v) BSA in PBS (PBSA), 100 μL/well for 1 hour at 37° C. Anti-DPEP3 antibody or a mouse isotype control antibody was then added at 1 μg/mL in 50 μL PBSA for 1 hour at room temperature. After washing with water, 50 μL/well HRP-labeled goat anti-mouse IgG antibody diluted 1:10,000 in PBSA was added for 30 min at room temperature. The plates were washed and developed by the addition of 40 μL/well of the TMB substrate solution (Thermo Scientific) at room temperature. An equal volume of 0.2 M H₂SO₄ was added to stop substrate development. The samples were then analyzed by spectrophotometer at OD 450. […] The cross reactivity results for exemplary DPEP3-specific antibodies can be seen in FIG. 4.

mDPEP3 = target: T2, mDPEP3; assay: ELISA, coated antigen
Method: as §1

[1] = target: T3, rat DPEP3 ECD with histidine tag; assay: ELISA, coated antigen
Method: as §1

[2] = target: T5, hDPEP2 ECD with histidine tag (human, UniProt Q9H4A9 33-463); assay: ELISA, coated antigen
T5 construct: also called hDPEP2-His; not shown: histidine tag
T5 sequence (Q9H4A9 33-463): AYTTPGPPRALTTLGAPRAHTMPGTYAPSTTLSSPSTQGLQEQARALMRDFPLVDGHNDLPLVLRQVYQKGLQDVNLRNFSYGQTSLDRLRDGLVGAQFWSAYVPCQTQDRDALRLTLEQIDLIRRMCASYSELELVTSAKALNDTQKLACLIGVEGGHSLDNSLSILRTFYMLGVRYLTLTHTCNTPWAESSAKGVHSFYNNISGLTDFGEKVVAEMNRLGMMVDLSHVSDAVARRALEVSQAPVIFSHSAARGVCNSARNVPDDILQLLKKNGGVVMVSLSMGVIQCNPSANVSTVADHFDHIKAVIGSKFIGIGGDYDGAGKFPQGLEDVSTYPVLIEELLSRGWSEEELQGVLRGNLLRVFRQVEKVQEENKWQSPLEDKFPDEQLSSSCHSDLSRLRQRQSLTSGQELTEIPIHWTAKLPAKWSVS
Method: as §1

hDPEP3-ECD-His = target: T4, hDPEP3-ECD-His; assay: BLI ForteBio RED, 200 nM hDPEP3-His, estimated grade
Method: The affinity of the antibodies for hDPEP3-His was qualitatively determined from kinetics curves generated with a ForteBio RED as follows. Anti-DPEP3 antibodies were immobilized onto anti-mouse Fc capture biosensors with a contact time of 3 mins. and a flow rate of 1000 rpm. The captured antibody loading from baseline was constant at 0.3-1 units. Following antibody capture and 30 second baseline, the biosensors were dipped into a 200 nM solution of hDPEP3-His for a 4 min. association phase followed by a 3 min. dissociation phase at a shaking rate of 1000 rpm. The biosensors were regenerated by dipping into 10 mM glycine, pH 1.7 following each cycle. The data was processed by subtracting a control mouse IgG surface response from the specific antibody response and data was truncated to the association and dissociation phase. The association and dissociation curves were used to qualitatively estimate the affinities of selected antibodies. […] A designation of “ND” means that the estimated KD was not determined.

Binder | binding result (cDPEP3) | binding result (mDPEP3) | binding result [1] | binding result [2] | Kd (hDPEP3-ECD-His)
B1 | no binding (tested: 1 ug/mL) | no binding (tested: 1 ug/mL) | no binding (tested: 1 ug/mL) | no binding (tested: 1 ug/mL) | < 5 nM
B2 | no binding (tested: 1 ug/mL) | no binding (tested: 1 ug/mL) | no binding (tested: 1 ug/mL) | no binding (tested: 1 ug/mL) | < 5 nM
B3 | no binding (tested: 1 ug/mL) | no binding (tested: 1 ug/mL) | no binding (tested: 1 ug/mL) | no binding (tested: 1 ug/mL) | < 5 nM
B4 | no binding (tested: 1 ug/mL) | no binding (tested: 1 ug/mL) | no binding (tested: 1 ug/mL) | no binding (tested: 1 ug/mL) | > 10 nM
B5 | no binding (tested: 1 ug/mL) | no binding (tested: 1 ug/mL) | no binding (tested: 1 ug/mL) | no binding (tested: 1 ug/mL) | < 5 nM
B6 | no binding (tested: 1 ug/mL) | no binding (tested: 1 ug/mL) | no binding (tested: 1 ug/mL) | no binding (tested: 1 ug/mL) | ≥ 5 nM and ≤ 10 nM
B7 | no binding (tested: 1 ug/mL) | no binding (tested: 1 ug/mL) | no binding (tested: 1 ug/mL) |  | < 5 nM
B8 | no binding (tested: 1 ug/mL) | no binding (tested: 1 ug/mL) | no binding (tested: 1 ug/mL) |  | < 5 nM
